Test [1] has as its target T1, HER3 (human, UniProt P21860). The test can be described thus: ELISA. For orientation: In an ELISA, binding on a coated surface is turned into a signal by an enzyme label.
Test [2] addresses T1, HER3. The test can be described thus: FACS, Colo205 cells. On the technique in general: A flow cytometer gives signals particle by particle.
For test [3], the target named is T2, TRAIL-R2 (DR5) (human, UniProt O14763). The test can be described thus: ELISA.
The target of test [4] is T2, TRAIL-R2 (DR5). The test can be described thus: FACS, Colo205 cells.
Test [5] addresses T3, EGFR (human, UniProt P00533). The test can be described thus: FACS, Colo205 cells.
Test [6] deals with T3, EGFR. Briefly: ELISA.

B1: scFv3M6-EHD2-scTRAIL3-… (HER3 arm) (antibody)
chain: EVQLLESGGGLVQPGGSLRLSCAASGFTFSHYVMAWVRQAPGKGLEWVSSISSSGGWTLYADSVKGRFTISRDNSKNTLYLQMNSLRAEDTAVYYCTRGLKMATIFDYWGQGTLVTVSSGGGGSGGGGSGGGGSQSALTQPASVSGSPGQSITISCTGTSSDVGSYNVVSWYQQHPGKAPKLIIYEVSQRPSGVSNRFSGSKSGNTASLTISGLQTEDEADYYCSSYAGSSIFVIFGGGTKVTVLAAAGGSGGDFTPPTVKILQSSCDGGGHFPPTIQLLCLVSGYTPGTINITWLEDGQVMDVDLSTASTTQEGELASTQSELTLSQKHWLSDRTYTCQVTYQGHTFEDSTKKCADSN
Consider B1, for which the half-maximal effective concentration (EC50) – broadly, the concentration at which the effect is half-maximal – was determined as 11.6 nM with HER3 [1] and 19.9 nM with HER3 [2].

B2: scFv3M6-Fc-scTRAIL3-… (HER3 arm) (antibody, V domains shown)
VH: EVQLLESGGGLVQPGGSLRLSCAASGFTFSHYVMAWVRQAPGKGLEWVSSISSSGGWTLYADSVKGRFTISRDNSKNTLYLQMNSLRAEDTAVYYCTRGLKMATIFDYWGQGTLVTVSS
VL: QSALTQPASVSGSPGQSITISCTGTSSDVGSYNVVSWYQQHPGKAPKLIIYEVSQRPSGVSNRFSGSKSGNTASLTISGLQTEDEADYYCSSYAGSSIFVIFGGGTKVTVL
In the test with HER3 [2], B2 returned an EC50 of 13.1 nM.

B3: Db3M6-scTRAIL3-… (HER3 arm) (antibody, V domains shown)
VH: EVQLLESGGGLVQPGGSLRLSCAASGFTFSHYVMAWVRQAPGKGLEWVSSISSSGGWTLYADSVKGRFTISRDNSKNTLYLQMNSLRAEDTAVYYCTRGLKMATIFDYWGQGTLVTVSS
VL: QSALTQPASVSGSPGQSITISCTGTSSDVGSYNVVSWYQQHPGKAPKLIIYEVSQRPSGVSNRFSGSKSGNTASLTISGLQTEDEADYYCSSYAGSSIFVIFGGGTKVTVL
As to B3, the EC50 with HER3 [1] was found to be 5.88 nM; in the test with HER3 [2] it was 10.4 nM.

B4: dsDb3M6-scTRAIL3-FLVGGGPQRVA (antibody)
chain: DYKDDDDKGGGGSGTEVQLLESGGGLVQPGGSLRLSCAASGFTFSHYVMAWVRQAPGKCLEWVSSISSSGGWTLYADSVKGRFTISRDNSKNTLYLQMNSLRAEDTAVYYCTRGLKMATIFDYWGQGTLVTVSSGGGGSQSALTQPASVSGSPGQSITISCTGTSSDVGSYNVVSWYQQHPGKAPKLIIYEVSQRPSGVSNRFSGSKSGNTASLTISGLQTEDEADYYCSSYAGSSIFVIFGCGTKVTVLAAAGGSGGGPQRVAAHITGTRGRSNTLSSPNSKNEKALGRKINSWESSRSGHSFLSNLHLRNGELVIHEKGFYYIYSQTYFRFQEEIKENTKNDKQMVQYIYKYTSYPDPILLMKSARNSCWSKDAEYGLYSIYQGGIFELKENDRIFVSVTNEHLIDMDHEASFFGAFLVGGGPQRVAAHITGTRGRSNTLSSPNSKNEKALGRKINSWESSRSGHSFLSNLHLRNGELVIHEKGFYYIYSQTYFRFQEEIKENTKNDKQMVQYIYKYTSYPDPILLMKSARNSCWSKDAEYGLYSIYQGGIFELKENDRIFVSVTNEHLIDMDHEASFFGAFLVGGGPQRVAAHITGTRGRSNTLSSPNSKNEKALGRKINSWESSRSGHSFLSNLHLRNGELVIHEKGFYYIYSQTYFRFQEEIKENTKNDKQMVQYIYKYTSYPDPILLMKSARNSCWSKDAEYGLYSIYQGGIFELKENDRIFVSVTNEHLIDMDHEASFFGAFLVG
As to B4, the EC50 with TRAIL-R2 (DR5) [3] is 2.83 nM; with HER3 [1] it was 8.54 nM; with HER3 [2], 32.5 nM.

B5: EHD2-scTRAIL3-FLVGGGPQRVA (designed binder)
chain 1: DFTPPTVKILQSSCDGGGHFPPTIQLLCLVSGYTPGTINITWLEDGQVMDVDLSTASTTQEGELASTQSELTLSQKHWLSDRTYTCQVTYQGHTFEDSTKKCADSN
chain 2: MDWTWRVFCLLAVAPGAHSLDDYKDDDDKEFGGGPQRVAAHITGTRGRSNTLSSPNSKNEKALGRKINSWESSRSGHSFLSNLHLRNGELVIHEKGFYYIYSQTYFRFQEEIKENTKNDKQMVQYIYKYTSYPDPILLMKSARNSCWSKDAEYGLYSIYQGGIFELKENDRIFVSVTNEHLIDMDHEASFFGAFLVGGGPQRVAAHITGTRGRSNTLSSPNSKNEKALGRKINSWESSRSGHSFLSNLHLRNGELVIHEKGFYYIYSQTYFRFQEEIKENTKNDKQMVQYIYKYTSYPDPILLMKSARNSCWSKDAEYGLYSIYQGGIFELKENDRIFVSVTNEHLIDMDHEASFFGAFLVGGGPQRVAAHITGTRGRSNTLSSPNSKNEKALGRKINSWESSRSGHSFLSNLHLRNGELVIHEKGFYYIYSQTYFRFQEEIKENTKNDKQMVQYIYKYTSYPDPILLMKSARNSCWSKDAEYGLYSIYQGGIFELKENDRIFVSVTNEHLIDMDHEASFFGAFLV
For B5, the EC50 was 1.94 nM with TRAIL-R2 (DR5) [3] and greater than 100 nM with TRAIL-R2 (DR5) [4].

B6: scTRAIL3-FLVGGGPQRVA (designed binder)
chain: MDWTWRVFCLLAVAPGAHSLDDYKDDDDKEFGGGPQRVAAHITGTRGRSNTLSSPNSKNEKALGRKINSWESSRSGHSFLSNLHLRNGELVIHEKGFYYIYSQTYFRFQEEIKENTKNDKQMVQYIYKYTSYPDPILLMKSARNSCWSKDAEYGLYSIYQGGIFELKENDRIFVSVTNEHLIDMDHEASFFGAFLVGGGPQRVAAHITGTRGRSNTLSSPNSKNEKALGRKINSWESSRSGHSFLSNLHLRNGELVIHEKGFYYIYSQTYFRFQEEIKENTKNDKQMVQYIYKYTSYPDPILLMKSARNSCWSKDAEYGLYSIYQGGIFELKENDRIFVSVTNEHLIDMDHEASFFGAFLVGGGPQRVAAHITGTRGRSNTLSSPNSKNEKALGRKINSWESSRSGHSFLSNLHLRNGELVIHEKGFYYIYSQTYFRFQEEIKENTKNDKQMVQYIYKYTSYPDPILLMKSARNSCWSKDAEYGLYSIYQGGIFELKENDRIFVSVTNEHLIDMDHEASFFGAFLV
For the molecule B6, the 50% effective concentration (EC50) was found to be 1.74 nM with TRAIL-R2 (DR5) [3] and 5.67 nM with TRAIL-R2 (DR5) [4].

B7: scFvhu225-EHD2-scTRAIL3-FLVGGGPQRVA (antibody)
chain: DYKDDDDKGGGGSGTEVQLVESGGGLVQPGGSLRLSCAASGFSLTNYGVHWVRQAPGKGLEWLGVIWSGGNTDYNTPFTSRFTISRDNSKNTLYLQMNSLRAEDTAVYYCARALTYYDYEFAYWGQGTTVTVSSGGGGSGGGGSGGGGSDIQLTQSPSFLSASVGDRVTITCRASQSIGTNIHWYQQKPGKAPKLLIKYASESISGVPSRFSGSGSGTEFTLTISSLQPEDFATYYCQQNNNWPTTFGAGTKLEIKRAAAGGSGGDFTPPTVKILQSSCDGGGHFPPTIQLLCLVSGYTPGTINITWLEDGQVMDVDLSTASTTQEGELASTQSELTLSQKHWLSDRTYTCQVTYQGHTFEDSTKKCADSNGGSGGASSGGGPQRVAAHITGTRGRSNTLSSPNSKNEKALGRKINSWESSRSGHSFLSNLHLRNGELVIHEKGFYYIYSQTYFRFQEEIKENTKNDKQMVQYIYKYTSYPDPILLMKSARNSCWSKDAEYGLYSIYQGGIFELKENDRIFVSVTNEHLIDMDHEASFFGAFLVGGGPQRVAAHITGTRGRSNTLSSPNSKNEKALGRKINSWESSRSGHSFLSNLHLRNGELVIHEKGFYYIYSQTYFRFQEEIKENTKNDKQMVQYIYKYTSYPDPILLMKSARNSCWSKDAEYGLYSIYQGGIFELKENDRIFVSVTNEHLIDMDHEASFFGAFLVGGGPQRVAAHITGTRGRSNTLSSPNSKNEKALGRKINSWESSRSGHSFLSNLHLRNGELVIHEKGFYYIYSQTYFRFQEEIKENTKNDKQMVQYIYKYTSYPDPILLMKSARNSCWSKDAEYGLYSIYQGGIFELKENDRIFVSVTNEHLIDMDHEASFFGAFLVG
As to B7, the results for the EC50 with EGFR [5], with TRAIL-R2 (DR5) [3] and with EGFR [6] were 0.58 nM, 1.82 nM and 1.25 nM, respectively.

B8: Dbhu225-scTRAIL3-FLVGGGPQRVA (antibody)
chain: DYKDDDDKGGGGSGTEVQLVESGGGLVQPGGSLRLSCAASGFSLTNYGVHWVRQAPGKGLEWLGVIWSGGNTDYNTPFTSRFTISRDNSKNTLYLQMNSLRAEDTAVYYCARALTYYDYEFAYWGQGTTVTVSSGGGGSDIQLTQSPSFLSASVGDRVTITCRASQSIGTNIHWYQQKPGKAPKLLIKYASESISGVPSRFSGSGSGTEFTLTISSLQPEDFATYYCQQNNNWPTTFGAGTKLEIKRAAAGGSGGGPQRVAAHITGTRGRSNTLSSPNSKNEKALGRKINSWESSRSGHSFLSNLHLRNGELVIHEKGFYYIYSQTYFRFQEEIKENTKNDKQMVQYIYKYTSYPDPILLMKSARNSCWSKDAEYGLYSIYQGGIFELKENDRIFVSVTNEHLIDMDHEASFFGAFLVGGGPQRVAAHITGTRGRSNTLSSPNSKNEKALGRKINSWESSRSGHSFLSNLHLRNGELVIHEKGFYYIYSQTYFRFQEEIKENTKNDKQMVQYIYKYTSYPDPILLMKSARNSCWSKDAEYGLYSIYQGGIFELKENDRIFVSVTNEHLIDMDHEASFFGAFLVGGGPQRVAAHITGTRGRSNTLSSPNSKNEKALGRKINSWESSRSGHSFLSNLHLRNGELVIHEKGFYYIYSQTYFRFQEEIKENTKNDKQMVQYIYKYTSYPDPILLMKSARNSCWSKDAEYGLYSIYQGGIFELKENDRIFVSVTNEHLIDMDHEASFFGAFLVG
On to B8, for which the EC50 in the test with EGFR [5] worked out at 0.87 nM; with TRAIL-R2 (DR5) [3], 0.79 nM; with EGFR [6], 0.77 nM.

B9: dsDbhu225-scTRAIL3-FLVGGGPQRVA (antibody)
chain: DYKDDDDKGGGGSGTEVQLVESGGGLVQPGGSLRLSCAASGFSLTNYGVHWVRQAPGKCLEWLGVIWSGGNTDYNTPFTSRFTISRDNSKNTLYLQMNSLRAEDTAVYYCARALTYYDYEFAYWGQGTTVTVSSGGGGSDIQLTQSPSFLSASVGDRVTITCRASQSIGTNIHWYQQKPGKAPKLLIKYASESISGVPSRFSGSGSGTEFTLTISSLQPEDFATYYCQQNNNWPTTFGCGTKLEIKRAAAGGSGGGPQRVAAHITGTRGRSNTLSSPNSKNEKALGRKINSWESSRSGHSFLSNLHLRNGELVIHEKGFYYIYSQTYFRFQEEIKENTKNDKQMVQYIYKYTSYPDPILLMKSARNSCWSKDAEYGLYSIYQGGIFELKENDRIFVSVTNEHLIDMDHEASFFGAFLVGGGPQRVAAHITGTRGRSNTLSSPNSKNEKALGRKINSWESSRSGHSFLSNLHLRNGELVIHEKGFYYIYSQTYFRFQEEIKENTKNDKQMVQYIYKYTSYPDPILLMKSARNSCWSKDAEYGLYSIYQGGIFELKENDRIFVSVTNEHLIDMDHEASFFGAFLVGGGPQRVAAHITGTRGRSNTLSSPNSKNEKALGRKINSWESSRSGHSFLSNLHLRNGELVIHEKGFYYIYSQTYFRFQEEIKENTKNDKQMVQYIYKYTSYPDPILLMKSARNSCWSKDAEYGLYSIYQGGIFELKENDRIFVSVTNEHLIDMDHEASFFGAFLVG
On to B9, for which the EC50 was 0.86 nM with EGFR [5], 1.29 nM with TRAIL-R2 (DR5) [3] and 0.98 nM in the test with EGFR [6].

Source of the values: US10428149 (dated 2019).
